We go through 4 sequences from the supplement of paper PMC5998384.

Data set [1] relates to HeLa Kyoto. The experiment in a line: solubility in G1/S (NP-40 vs SDS abundance) (log2 ratio); higher = more soluble. As to conditions: cell cycle stage: G1/S.
The subject of data set [2] is HeLa Kyoto. The experiment in a line: melting temperature (median over replicates), in situ; higher = more thermally stable.
For data set [3], the system named is HeLa Kyoto. The experiment in a line: solubility change mitosis vs G1/S (difference of NP-40 vs SDS log2 ratios) (log2 ratio difference); higher = more soluble in mitosis.
The test system of data set [4] is HeLa Kyoto. The experiment in a line: thermal stability score vs G1/S (z-score of summed log2 fold changes over temperatures); higher = more thermally stable than in G1/S.
Setting [5] is: cell cycle stage: early G1 (4.5 h after nocodazole release).
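For melting temperature (median over replicates), in situ in this document: HeLa Kyoto cells synchronized by double thymidine or nocodazole block, proteins quantified by TMT10plex mass spectrometry, three independent biological replicates.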
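For solubility change mitosis vs G1/S (difference of NP-40 vs SDS log2 ratios) in this document: synchronized HeLa Kyoto cells (double thymidine block for G1/S, nocodazole release for mitosis), protein amounts in NP-40 versus SDS lysates quantified by mass spectrometry, three biological replicates.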
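For solubility in G1/S (NP-40 vs SDS abundance) in this document: HeLa Kyoto cells arrested at G1/S by double thymidine block, proteins quantified by TMT10plex mass spectrometry in mild NP-40 versus SDS extracts, three biological replicates.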
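For thermal stability score vs G1/S (z-score of summed log2 fold changes over temperatures) in this document: synchronized HeLa Kyoto cells, proteins quantified by TMT10plex mass spectrometry, three biological replicates, mitosis taken 0.5 h after nocodazole release, G1/S directly after double thymidine block.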

As for “MPPSGPRGTLLLLPLLLLLLLRAVLAVPLERGAPNKEETPATESPDTGLYYHRYLQEVIDVLETDGHFREKLQAANAEDIKSGKLSRELDFVSHHVRTKLDELKRQEVSRLRMLLKAKMDAEQDPNVQVDHLNLLKQFEHLDPQNQHTFEARDLELLIQTATRDLAQYDAAHHEEFKRYEMLKEHERRRYLESLGEEQRKEAERKLEEQQRRHREHPKVNVPGSQAQLKEVWEELDGLDPNRFNPKTFFILHDINSDGVLDEQELEALFTKELEKVYDPKNEEDDMREMEEERLRMREHVMKNVDTNQDRLVTLEEFLASTQRKEFGDTGEGWETVEMHPAYTEEELRRFEEELAAREAELNAKAQRLSQETEALGRSQGRLEAQKRELQQAVLHMEQRKQQQQQQQGHKAPAAHPEGQLKFHPDTDDVPVPAPAGDQKEVDTSEKKLLERLPEVEVPQHL [NUCB1]”, in data set [1], the “solubility in G1/S (log2)” value amounted to 0.717. The results for the melting temperature in data set [2] (cell cycle stage: G1/S) and in data set [2] (cell cycle stage: mitosis) were 54.5 °C and 54.7 °C, respectively. Besides, the “solubility change mitosis (log2)” value in data set [3] came to 0.0913. In addition, the thermal stability score is -3.73 in data set [4] (setting [5]) and -4.26 in data set [4] (cell cycle stage: mitosis).

For the sequence “MPRIMIKGGVWRNTEDEILKAAVMKYGKNQWSRIASLLHRKSAKQCKARWYEWLDPSIKKTEWSREEEEKLLHLAKLMPTQWRTIAPIIGRTAAQCLEHYEFLLDKAAQRDNEEETTDDPRKLKPGEIDPNPETKPARPDPIDMDEDELEMLSEARARLANTQGKKAKRKAREKQLEEARRLAALQKRRELRAAGIEIQKKRKRKRGVDYNAEIPFEKKPALGFYDTSEENYQALDADFRKLRQQDLDGELRSEKEGRDRKKDKQHLKRKKESDLPSAILQTSGVSEFTKKRSKLVLPAPQISDAELQEVVKVGQASEIARQTAEESGITNSASSTLLSEYNVTNNSVALRTPRTPASQDRILQEAQNLMALTNVDTPLKGGLNTPLHESDFSGVTPQRQVVQTPNTVLSTPFRTPSNGAEGLTPRSGTTPKPVINSTPGRTPLRDKLNINPEDGMADYSDPSYVKQMERESREHLRLGLLGLPAPKNDFEIVLPENAEKELEEREIDDTYIEDAADVDARKQAIRDAERVKEMKRMHKAVQKDLPRPSEVNETILRPLNVEPPLTDLQKSEELIKKEMITMLHYDLLHHPYEPSGNKKGKTVGFGTNNSEHITYLEHNPYEKFSKEELKKAQDVLVQEMEVVKQGMSHGELSSEAYNQVWEECYSQVLYLPGQSRYTRANLASKKDRIESLEKRLEINRGHMTTEAKRAAKMEKKMKILLGGYQSRAMGLMKQLNDLWDQIEQAHLELRTFEELKKHEDSAIPRRLECLKEDVQRQQEREKELQHRYADLLLEKETLKSKF [CDC5L]”, the “solubility in G1/S (log2)” value in data set [1] is -0.778. Moreover, the values for the melting temperature in data set [2] (cell cycle stage: G1/S) and in data set [2] (cell cycle stage: mitosis) were 47.5 °C and 48.7 °C, respectively. The “solubility change mitosis (log2)” value in data set [3] was 0.483. The thermal stability score was 3.11 in data set [4] (setting [5]) and 6.1 in data set [4] (cell cycle stage: mitosis).

As for “MPRKRKCDLRAVRVGLLLGGGGVYGSRFRFTFPGCRALSPWRVRVQRRRCEMSTMFADTLLIVFISVCTALLAEGITWVLVYRTDKYKRLKAEVEKQSKKLEKKKETITESAGRQQKKKIERQEEKLKNNNRDLSMVRMKSMFAIGFCFTALMGMFNSIFDGRVVAKLPFTPLSYIQGLSHRNLLGDDTTDCSFIFLYILCTMSIRQNIQKILGLAPSRAATKQAGGFLGPPPPSGKFS [TMCO1]”, the “solubility in G1/S (log2)” value in data set [1] was -0.0501. Moreover, the melting temperature in data set [2] (cell cycle stage: G1/S) stood at 53.7 °C; in data set [2] (cell cycle stage: mitosis) it was 54.1 °C. Besides, in data set [3], the “solubility change mitosis (log2)” value is 0.0683. Also, the figures for the thermal stability score in data set [4] (setting [5]) and in data set [4] (cell cycle stage: mitosis) were -0.0145 and -0.0344, respectively.

On to “MPSASCDTLLDDIEDIVSQEDSKPQDRHFVRKDVVPKVRRRNTQKYLQEEENSPPSDSTIPGIQKIWIRTWGCSHNNSDGEYMAGQLAAYGYKITENASDADLWLLNSCTVKNPAEDHFRNSIKKAQEENKKIVLAGCVPQAQPRQDYLKGLSIIGVQQIDRVVEVVEETIKGHSVRLLGQKKDNGRRLGGARLDLPKIRKNPLIEIISINTGCLNACTYCKTKHARGNLASYPIDELVDRAKQSFQEGVCEIWLTSEDTGAYGRDIGTNLPTLLWKLVEVIPEGAMLRLGMTNPPYILEHLEEMAKILNHPRVYAFLHIPVQSASDSVLMEMKREYCVADFKRVVDFLKEKVPGITIATDIICGFPGETDQDFQETVKLVEEYKFPSLFINQFYPRPGTPAAKMEQVPAQVKKQRTKDLSRVFHSYSPYDHKIGERQQVLVTEESFDSKFYVAHNQFYEQVLVPKNPAFMGKMVEVDIYESGKHFMKGQPVSDAKVYTPSISKPLAKGEVSGLTKDFRNGLGNQLSSGSHTSAASQCDSASSRMVLPMPRLHQDCALRMSVGLALLGLLFAFFVKVYN [CDKAL1]”, for which the “solubility in G1/S (log2)” value in data set [1] was 0.0175. For the same sequence, the values for the melting temperature in data set [2] (cell cycle stage: G1/S) and in data set [2] (cell cycle stage: mitosis) were 51.2 °C and 50.7 °C, respectively. Moreover, in data set [3], the “solubility change mitosis (log2)” value is -0.00551. The thermal stability score was -2.9 in data set [4] (setting [5]) and -1 in data set [4] (cell cycle stage: mitosis).
